In patent publication US20200078442A1 (ARCH BIOPARTNERS, published 2020):
Ends that are not written are not given here.

T1: human DPEP3 (human, UniProt Q9H4B8 36-463)
T1 construct: whole, on cells; Transiently expressed on Cos-1 cells
T1 sequence (looked up): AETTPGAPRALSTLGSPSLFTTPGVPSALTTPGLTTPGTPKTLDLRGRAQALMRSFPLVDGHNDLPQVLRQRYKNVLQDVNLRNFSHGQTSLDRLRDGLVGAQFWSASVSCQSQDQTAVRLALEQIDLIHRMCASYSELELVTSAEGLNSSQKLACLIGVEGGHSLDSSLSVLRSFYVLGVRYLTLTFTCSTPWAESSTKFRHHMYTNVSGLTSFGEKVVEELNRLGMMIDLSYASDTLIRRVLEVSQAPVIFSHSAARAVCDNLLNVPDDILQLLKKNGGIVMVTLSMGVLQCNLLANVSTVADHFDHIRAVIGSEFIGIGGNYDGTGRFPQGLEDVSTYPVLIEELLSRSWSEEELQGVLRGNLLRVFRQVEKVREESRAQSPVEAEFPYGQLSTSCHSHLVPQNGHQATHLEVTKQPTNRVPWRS

T2: human membrane dipeptidase (DPEP-1) (human, UniProt P16444 17-385)
T2 construct: whole, on cells; The background section describes DPEP-1 as a disulfide-linked homodimer; also called renal dipeptidase; dehydropeptidase-1
T2 sequence (looked up): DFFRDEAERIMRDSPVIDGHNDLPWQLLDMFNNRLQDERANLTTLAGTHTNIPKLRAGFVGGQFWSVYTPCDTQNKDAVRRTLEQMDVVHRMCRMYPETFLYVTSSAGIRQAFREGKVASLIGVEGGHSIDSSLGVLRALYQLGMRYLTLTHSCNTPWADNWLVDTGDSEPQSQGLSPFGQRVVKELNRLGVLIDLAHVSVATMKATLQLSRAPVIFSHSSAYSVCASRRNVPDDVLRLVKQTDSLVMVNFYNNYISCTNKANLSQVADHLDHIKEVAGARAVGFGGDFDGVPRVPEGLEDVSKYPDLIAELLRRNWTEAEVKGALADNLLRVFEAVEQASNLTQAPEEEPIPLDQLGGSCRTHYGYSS

T3: LSALT peptide (LSALTPSPSWLKYKAL)
T3 chain: LSALTPSPSWLKYKAL

B1: LSALT peptide (LSALTPSPSWLKYKAL) (peptide)
peptide: LSALTPSPSWLKYKAL
modifications: also: Alexa-488 conjugate in binding assays, site not given here
notes: Phage-display derived peptide; also called Metablok
B2: human membrane dipeptidase (DPEP-1) (protein)
chain: DFFRDEAERIMRDSPVIDGHNDLPWQLLDMFNNRLQDERANLTTLAGTHTNIPKLRAGFVGGQFWSVYTPCDTQNKDAVRRTLEQMDVVHRMCRMYPETFLYVTSSAGIRQAFREGKVASLIGVEGGHSIDSSLGVLRALYQLGMRYLTLTHSCNTPWADNWLVDTGDSEPQSQGLSPFGQRVVKELNRLGVLIDLAHVSVATMKATLQLSRAPVIFSHSSAYSVCASRRNVPDDVLRLVKQTDSLVMVNFYNNYISCTNKANLSQVADHLDHIKEVAGARAVGFGGDFDGVPRVPEGLEDVSKYPDLIAELLRRNWTEAEVKGALADNLLRVFEAVEQASNLTQAPEEEPIPLDQLGGSCRTHYGYSS
B3: GFE-1 peptide (CGFECVRQCPERC) (peptide)
peptide: CGFECVRQCPERC
modifications: cysteine pairing not given here; also: conjugated with Alexa-488 or Alexa-568, attachment site not given here

Experiments:
[1] = biological target: T4, rat membrane dipeptidase (DPEP-1) (rat, UniProt P31430 17-384); assay: immunofluorescence microscopy of Alexa-488 peptide on Cos-1 cells transfected with rat DPEP-1
T4 construct: whole, on cells; Transiently expressed on Cos-1 or Cos-7 cells; also called renal rat membrane dipeptidase; rat DPEP-1
T4 sequence (P31430 17-384): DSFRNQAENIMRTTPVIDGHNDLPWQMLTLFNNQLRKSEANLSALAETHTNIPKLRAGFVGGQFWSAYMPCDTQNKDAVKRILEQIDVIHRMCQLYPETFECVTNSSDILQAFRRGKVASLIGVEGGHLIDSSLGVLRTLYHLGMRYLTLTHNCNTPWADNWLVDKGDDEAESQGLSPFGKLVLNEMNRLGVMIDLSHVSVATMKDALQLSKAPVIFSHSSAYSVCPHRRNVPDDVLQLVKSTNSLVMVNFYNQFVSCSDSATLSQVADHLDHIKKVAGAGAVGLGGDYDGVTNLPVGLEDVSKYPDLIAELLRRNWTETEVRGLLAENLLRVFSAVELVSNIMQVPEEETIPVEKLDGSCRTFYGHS
Method: Cos-1 cells were transiently transfected with either 3 or 5 μg of membrane dipeptidase (DPEP-1) cDNA corresponding to the rat (Shown in FIG. 5A) or human DPEP-1 (Shown in FIG. 5B) gene using lipofectamine 2000 (Invitrogen) reagent in OptiMEM medium. 24 hours after transfection, DPEP-1 expressing cells were re-seeded on collagen coated (neutralized) wells in 24 well plates and allowed to grow for 24 hours at 37° C. 24 hours after seeding, media was removed and cells were washed with PBS. Cells were blocked with FBS/NBSA/Tween in PBS for 30 minutes on ice. Cells were then washed with PBS and incubated with Alexa-488 (green) conjugated LSALT, GFE-1, control peptide or DPEP-1 antibody ( 1/100) (Sigma) on ice for 30 minutes. […] After incubation, cells were washed with PBS and treated with 10 mg/ml biotin transfer peptide (LSALT, GFE-1 or Control Peptide (KGAL)] for 10 minutes. Cells were then washed with PBS and biotin transfer was enabled by UV activation of the aryl azide groups for 15 minutes at 363 nm. Residual fluid was removed and monolayers were lysed either with octyl-glucoside/RIPA or 8M urea. Isolated supernatants were rotated with 50 μl of neutr-avidin agarose beads at 4° C. for 24 hours. Beads were washed with corresponding buffers, boiled in Laemmli buffer and analyzed by western blot using a DPEP-1 specific antibody (Proteintech).

human DPEP2 = biological target: T5, human DPEP2 (human, UniProt Q9H4A9 33-463); assay: immunofluorescence microscopy of Alexa-488 peptide on transfected Cos-1 cells
T5 construct: whole, on cells; Transiently expressed on Cos-1 cells
T5 sequence (Q9H4A9 33-463): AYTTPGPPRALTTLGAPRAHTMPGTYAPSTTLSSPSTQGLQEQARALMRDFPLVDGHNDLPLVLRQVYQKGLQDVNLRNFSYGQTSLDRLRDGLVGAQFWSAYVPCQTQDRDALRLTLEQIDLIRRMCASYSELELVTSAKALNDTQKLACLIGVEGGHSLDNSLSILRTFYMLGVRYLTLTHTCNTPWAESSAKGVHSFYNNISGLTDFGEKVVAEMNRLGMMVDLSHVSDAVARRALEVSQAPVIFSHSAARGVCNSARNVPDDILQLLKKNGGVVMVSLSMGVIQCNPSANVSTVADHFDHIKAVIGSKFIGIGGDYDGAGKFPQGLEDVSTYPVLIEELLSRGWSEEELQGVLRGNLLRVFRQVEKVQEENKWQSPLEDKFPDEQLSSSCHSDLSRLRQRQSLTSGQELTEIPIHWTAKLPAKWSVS
Method: (§1) Cos-1 cells were transiently transfected with either 3 μg of human DPEP-1, DPEP2, or DPEP3 gene using lipofectamine 2000 (Invitrogen) reagent in OptiMEM medium. 24 hours after transfection, DPEP-1, DPEP2, or DPEP3 expressing cells were re-seeded on collagen coated (neutralized) wells in 24 well plates and allowed to grow for 24 hours at 37° C. 24 hours after seeding, media was removed and cells were washed with PBS. Cells were blocked with FBS/NBSA/Tween in PBS for 30 minutes on ice. Cells were then washed with PBS and incubated with LSALT or GFE-1, conjugated with Alexa-488 (green). After incubation, cells were washed with PBS and stained with DAPI for 5 minutes on ice. Cells were then washed with PBS and fixed using 4% paraformaldehyde and immunofluorescence microscopy was performed to assess binding. Representative photomicrographs are shown for each experimental condition (n=3) in FIG. 6A. Proteins from DPEP-1, DPEP2 and DPEP3 transfected cells were isolated after 48 hours using octyl-glucoside/RIPA lysis buffer and western blot analysis was performed to assess DPEP-1, DPEP2 and DPEP3 protein expression using specific antibodies; DPEP-1 antibody (Sigma), DPEP2 (Abcam) and DPEP3 (Santacruz). Blots were stripped and reprobed with an anti-β-actin.

human DPEP3 = biological target: T1, human DPEP3; assay: as above
Method: as §1

[2] = biological target: T2, human membrane dipeptidase (DPEP-1); assay: immunofluorescence microscopy of Alexa-488 peptide on Cos-1 cells transfected with human DPEP-1
[3] = biological target: T3, LSALT peptide (LSALTPSPSWLKYKAL)
[4] = biological target: T4, rat membrane dipeptidase (DPEP-1); assay: immunofluorescence microscopy of Alexa-568 peptide on Cos-7 cells transfected with rat DPEP-1
Method: Cos-7 cells were transiently transfected with 5 μg of renal rat membrane dipeptidase (DPEP-1) plasmid using lipofectamine 2000 (Invitrogen) reagent. 48 hours after transfection, media was removed and cells were washed with PBS. Cells were incubated with LSALT conjugated with Alexa-488 (Green), GFE-1 peptide conjugated with Alexa-568 (Red) or control peptide conjugated with Alexa-488 (Green) on ice for 30 minutes. Cells were washed and fixed using 4% paraformaldehyde and immunofluorescence microscopy was performed to assess binding. Shown are representative photomicrographs of each experimental condition (n=2).

Row | Binder | binding result [1] | binding result (human DPEP2) | binding result (human DPEP3) | binding result [2] | membrane dipeptidase (DPEP-1) enzyme activity (Gly-D-Phe substrate, fluorimetric detection of D-Phe) [3] | binding result [4]
1 | B1 | binds | no binding | no binding | binds | – | –
2 | B2 | – | – | – | – | LSALT does not Inhibit Membrane Dipeptidase (DPEP-1) Enzyme Activity | –
3 | B3 | – | no binding | no binding | – | – | binds
